According to the supplement of paper PMC7877785:
± gives the uncertainty stated by the source.

Assay: self-splicing fitness, log relative to wild type (ln ratio); higher = more splicing; Tetrahymena group I intron in knt gene, E. coli kanamycin selection, DiMSum; sequences stand for … in CUCUCU…GGAGGGAAAAGUUAUCAGGCAUGCACCUGGUAGCUAGUCUUUAAACCAAUAGAUUGCAUCGGUUUAAAAGGCAAGACCGUCAAAUUGCGGGAAAGGGGUCAACAGCCGUUCAGUACCAAGUCUCAGGGGAAACUUUGAGAUGGCCUUGCAAAGGGUAUGGUAAUAAGCUGACGGACAUGGUCCUAACCACGCAGCCAAGUCCUAAGUCAACAGAUCUUCUGUUGAUAUGGAUGCAGUUCACAGACUAAAUGUCGGUCGGGGAAGAUGUAUUCUUCUCAUAAGAUAUAGUCGGACCUCUCCUUAAUGGGAGCUAGCGGAUGAAGUGAUGCAACACUGGAGCCGCUGGGAACUAAUUUGUAUGCGAAAGUAUAUUGAUUAGUUUUGGAGUACUCGUGGUCG
Summary of the method: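 The eight P1ex-region nucleotides of an intron in the knt kanamycin-resistance gene on pET-22b(+) were all randomised and the library put into E. coli BL21(DE3). Six replicate transformations were grown overnight at 37°C or 30°C on LB agar with or without 25 μg/mL kanamycin, together with 100 μg/mL carbenicillin, 50 μM IPTG and 0.2% rhamnose. Colonies were pooled and amplicon-sequenced on an Illumina HiSeq 2500. Fitness from DiMSum is the error-weighted combination of wild-type-normalised replicate fold changes, kanamycin over none.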

Sequence | self-splicing fitness (ln) (30 °C) | self-splicing fitness (ln) (37 °C)
GCGCAGCAAUAUUACGAUGU | -1.21 ± 0.077 | -0.279 ± 0.099
AGGCAGCAAUAUUACGGUGA | -1.37 ± 0.14 | -0.711 ± 0.11
GGGCAGCAAUAUUACGCAGG | -2.6 ± 0.18 | -1.03 ± 0.19
UCUCAGCAAUAUUACGAUCU | -1.68 ± 0.14 | -2 ± 0.2
GGCCAGCAAUAUUACGGUAG | -0.883 ± 0.063 | 0.303 ± 0.083
GGCCAGCAAUAUUACGGGUA | -0.772 ± 0.064 | -0.783 ± 0.071
AUCGAGCAAUAUUACGGGAA | -2.59 ± 0.24 | -2.4 ± 0.22
UACUAGCAAUAUUACGCCCG | 0.342 ± 0.24 | -1.04 ± 0.2
GAGCAGCAAUAUUACGAUCG | -2.76 ± 0.17 | -2.48 ± 0.26
GUAAAGCAAUAUUACGCUUU | -3.46 ± 0.23 | -1.8 ± 0.27
UGAUAGCAAUAUUACGUAUU | -3.26 ± 0.25 | -2.34 ± 0.29
CGCAAGCAAUAUUACGAGUU | -3.26 ± 0.13 | -1.45 ± 0.1
GGUCAGCAAUAUUACGCUGC | -1.88 ± 0.25 | -3.17 ± 0.47
UGGCAGCAAUAUUACGCUCU | -2.8 ± 0.2 | -1.37 ± 0.16
AGCCAGCAAUAUUACGCUUG | -3.52 ± 0.17 | -1.58 ± 0.17
AAUCAGCAAUAUUACGUGCU | -3.39 ± 0.17 | -2.56 ± 0.17
GCCUAGCAAUAUUACGUUGU | -0.142 ± 0.04 | 0.252 ± 0.055
UUUAAGCAAUAUUACGGCUA | -0.342 ± 0.084 | 0.291 ± 0.1
CUAGAGCAAUAUUACGGUGU | -4.1 ± 0.19 | -2.92 ± 0.27
GCCUAGCAAUAUUACGGGUG | -1.02 ± 0.056 | -0.101 ± 0.067
CGAAAGCAAUAUUACGACAG | -0.552 ± 0.068 | -0.0312 ± 0.081
CGCGAGCAAUAUUACGAUCU | -3.42 ± 0.21 | -1.66 ± 0.14
CAACAGCAAUAUUACGGCUC | -1.38 ± 0.078 | -0.333 ± 0.098
UCAGAGCAAUAUUACGCUGC |  | -0.708 ± 0.32
GGAAAGCAAUAUUACGACGA | -0.602 ± 0.13 | 0.0265 ± 0.16
GCCGAGCAAUAUUACGCCUA | -2.44 ± 0.2 | -1.58 ± 0.16

Sequence | self-splicing fitness (ln) (30 °C) | self-splicing fitness (ln) (37 °C)
CGAGAGCAAUAUUACGGCUC | -1.09 ± 0.21 | 
UCCGAGCAAUAUUACGAUUA | -1.94 ± 0.28 | -1.72 ± 0.26
CUUAAGCAAUAUUACGGGAC | -3.6 ± 0.28 | -1.26 ± 0.13
AGAAAGCAAUAUUACGUGGG | -3.69 ± 0.17 | -1.3 ± 0.12
UGCAAGCAAUAUUACGACAU | -1.679 ± 0.013 | -0.674 ± 0.032
UUCCAGCAAUAUUACGACCU | -2.38 ± 0.26 | -3.19 ± 0.39
UAUGAGCAAUAUUACGAUCA | -2.24 ± 0.16 | -1.27 ± 0.14
GAUCAGCAAUAUUACGCCCG | -0.808 ± 0.25 | -0.447 ± 0.21
UCGCAGCAAUAUUACGGUAU | -3.36 ± 0.17 | -1.78 ± 0.21
UAAUAGCAAUAUUACGACGU | -3.74 ± 0.33 | -1.76 ± 0.18
UUCUAGCAAUAUUACGAGGC |  | -2.11 ± 0.38
AAUUAGCAAUAUUACGGCCG | -0.532 ± 0.18 | 0.571 ± 0.28
CACGAGCAAUAUUACGGAGC | -2.87 ± 0.44 | -0.87 ± 0.19
CCGUAGCAAUAUUACGCGUG | -2.72 ± 0.15 | -1.22 ± 0.12
AAAAAGCAAUAUUACGUACC | -0.981 ± 0.13 | -0.0947 ± 0.14
GCAAAGCAAUAUUACGUUGU | -3.71 ± 0.15 | -2.99 ± 0.15
CGAUAGCAAUAUUACGCAUU | -1.87 ± 0.2 | -1.3 ± 0.21
UUAUAGCAAUAUUACGCAGG | -1.06 ± 0.13 | -0.791 ± 0.16
CGCAAGCAAUAUUACGCAGA | -2.26 ± 0.15 | -1.78 ± 0.16
GCGCAGCAAUAUUACGCACG |  | -1.39 ± 0.3
ACUGAGCAAUAUUACGCUUC | -3.57 ± 0.24 | -3.1 ± 0.28
GACAAGCAAUAUUACGUAUA | -1.76 ± 0.15 | -1.79 ± 0.13
CAGUAGCAAUAUUACGGACC | -2.15 ± 0.36 | 
UACGAGCAAUAUUACGGAAC | -4.04 ± 0.42 | -3.02 ± 0.35
CAAAAGCAAUAUUACGCCAU | -3.4 ± 0.2 | -2.61 ± 0.23
CCUCAGCAAUAUUACGCUUC | -3.45 ± 0.39 | -3.01 ± 0.33

Sequence | self-splicing fitness (ln) (30 °C) | self-splicing fitness (ln) (37 °C)
CGCCAGCAAUAUUACGAUCU | -2.5 ± 0.26 | -2.42 ± 0.35
GUUAAGCAAUAUUACGAUAU | -1.02 ± 0.067 | -0.0864 ± 0.074
CCGAAGCAAUAUUACGCGCG | -1.23 ± 0.11 | 0.0615 ± 0.12
UAACAGCAAUAUUACGAAAC | -4.62 ± 0.38 | -2.75 ± 0.36
CUAAAGCAAUAUUACGGAUA | -3.45 ± 0.19 | -2.36 ± 0.2
GUACAGCAAUAUUACGUAUC | -2.87 ± 0.16 | -1.35 ± 0.28
UCUCAGCAAUAUUACGCGUC | -3.62 ± 0.27 | -2.81 ± 0.29
CGUGAGCAAUAUUACGUCGU |  | -2.72 ± 0.28
AAAUAGCAAUAUUACGAACU | 1.11 ± 0.17 | -0.182 ± 0.16
AUCAAGCAAUAUUACGGGCG | -1.34 ± 0.06 | -0.467 ± 0.079
GCGUAGCAAUAUUACGUAAU |  | -0.693 ± 0.32
CCGCAGCAAUAUUACGCUCA |  | -1.28 ± 0.21
GUCUAGCAAUAUUACGGUGC | 0.0594 ± 0.14 | -0.142 ± 0.15
GGACAGCAAUAUUACGCGGG | -2.52 ± 0.1 | -0.903 ± 0.091
AGUCAGCAAUAUUACGUGUC | -2.18 ± 0.13 | -2.11 ± 0.19
CGGCAGCAAUAUUACGAUCG | -2.76 ± 0.18 | -1.97 ± 0.19
GAACAGCAAUAUUACGAACU | -0.795 ± 0.07 | 0.239 ± 0.09
UUGCAGCAAUAUUACGUAGU | -3.7 ± 0.22 | -2.51 ± 0.28
ACGCAGCAAUAUUACGCGAG | -2.56 ± 0.12 | -0.987 ± 0.11
CAUCAGCAAUAUUACGCUAU | -2.87 ± 0.13 | -2.64 ± 0.2
UACCAGCAAUAUUACGGCCG | 0.00307 ± 0.099 | -0.366 ± 0.12
UUUUAGCAAUAUUACGCACA | -0.201 ± 0.21 | -0.107 ± 0.19
UUACAGCAAUAUUACGCGUU | -3.05 ± 0.14 | -1.95 ± 0.15
UGCAAGCAAUAUUACGAGAG | -3.4 ± 0.2 | -2.97 ± 0.21
UUCGAGCAAUAUUACGCGGA | -2.94 ± 0.25 | -3.71 ± 0.39
